System: Escherichia coli TOP10
Test: shrunken log2 fold change of peptide-encoding DNA abundance (4.5 h post-induction vs induction); higher = less antimicrobial activity (less host growth inhibition)
Conditions: time post-induction: 4.5 h; library: site-saturation at positions 5, 18, 19, 20
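Also: peptides expressed intracellularly from a pBAD plasmid library in pooled LB shake-flask culture, induced with 0.3% L-arabinose, DNA abundance read by NGS, three biological replicates, DESeq2 with apeglm shrinkage.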

| Sequence | shrunken log2 fold change |
| --- | --- |
| RRIRHRPPRLPRPRPRPLLWPRP | 0.0832 |
| RRIRVRPPRLPRPRPRPITAPRP | -0.272 |
| RRIRDRPPRLPRPRPRPLVSPRP | 0.469 |
| RRIRIRPPRLPRPRPRPRCNPRP | -0.393 |
| RRIRNRPPRLPRPRPRPMWWPRP | -0.0071 |
| RRIRGRPPRLPRPRPRPFETPRP | 2.8 |
| RRIRIRPPRLPRPRPRPQDWPRP | -0.344 |
| RRIRFRPPRLPRPRPRPFQKPRP | -0.00162 |
| RRIRFRPPRLPRPRPRPQREPRP | 0.296 |
| RRIRMRPPRLPRPRPRPSYGPRP | -0.0196 |
| RRIRNRPPRLPRPRPRPQNIPRP | -0.263 |
| RRIRNRPPRLPRPRPRPPGEPRP | 0.0757 |
| RRIRPRPPRLPRPRPRPCCVPRP | 0.182 |
| RRIRWRPPRLPRPRPRPSRWPRP | 0.209 |
| RRIRPRPPRLPRPRPRPDTIPRP | -0.247 |
| RRIRIRPPRLPRPRPRPPKHPRP | 0.00437 |
| RRIRFRPPRLPRPRPRPFWVPRP | -0.0435 |
| RRIRPRPPRLPRPRPRPILCPRP | 0.179 |
| RRIRHRPPRLPRPRPRPIMMPRP | 0.013 |
| RRIRFRPPRLPRPRPRPQDQPRP | -0.0978 |
| RRIRQRPPRLPRPRPRPFLCPRP | -0.336 |
| RRIRPRPPRLPRPRPRPHDGPRP | -0.0292 |
| RRIRPRPPRLPRPRPRPIMVPRP | -0.158 |

| Sequence | shrunken log2 fold change |
| --- | --- |
| RRIRHRPPRLPRPRPRPTYCPRP | -0.129 |
| RRIRNRPPRLPRPRPRPLETPRP | -0.0418 |
| RRIRSRPPRLPRPRPRPLYSPRP | -0.442 |
| RRIRSRPPRLPRPRPRPYTAPRP | -0.752 |
| RRIRGRPPRLPRPRPRPESQPRP | 1.57 |
| RRIRKRPPRLPRPRPRPNFWPRP | -0.152 |
| RRIRCRPPRLPRPRPRPYMSPRP | -0.366 |
| RRIRSRPPRLPRPRPRPKFMPRP | -0.0581 |
| RRIRKRPPRLPRPRPRPKTEPRP | -0.0466 |
| RRIRQRPPRLPRPRPRPDRSPRP | 0.0153 |
| RRIRGRPPRLPRPRPRPCIGPRP | -0.143 |
| RRIRDRPPRLPRPRPRPIWQPRP | 0.211 |
| RRIRDRPPRLPRPRPRPADRPRP | 0.0125 |
| RRIRCRPPRLPRPRPRPWCYPRP | -0.831 |
| RRIRRRPPRLPRPRPRPAVCPRP | 0.66 |
| RRIRNRPPRLPRPRPRPPCNPRP | -0.517 |
| RRIRPRPPRLPRPRPRPSCSPRP | -0.538 |
| RRIRQRPPRLPRPRPRPNRMPRP | 0.00219 |
| RRIRGRPPRLPRPRPRPNNKPRP | 0.0225 |
| RRIRYRPPRLPRPRPRPEIWPRP | 0.212 |
| RRIRCRPPRLPRPRPRPFCRPRP | -0.0846 |
| RRIRIRPPRLPRPRPRPHVRPRP | 0.031 |
| RRIRGRPPRLPRPRPRPMMSPRP | 0.136 |

| Sequence | shrunken log2 fold change |
| --- | --- |
| RRIRKRPPRLPRPRPRPTLQPRP | 0.594 |
| RRIRERPPRLPRPRPRPIYLPRP | -0.649 |
| RRIRGRPPRLPRPRPRPEWIPRP | 0.142 |
| RRIRLRPPRLPRPRPRPSFYPRP | -0.7 |
| RRIRGRPPRLPRPRPRPGIHPRP | 0.251 |
| RRIRFRPPRLPRPRPRPMYKPRP | -0.662 |
| RRIRFRPPRLPRPRPRPCKMPRP | 0.111 |
| RRIRFRPPRLPRPRPRPCHNPRP | -0.0447 |
| RRIRVRPPRLPRPRPRPALTPRP | 0.117 |
| RRIRGRPPRLPRPRPRPMQAPRP | 0.256 |
| RRIRERPPRLPRPRPRPWPLPRP | 0.0261 |
| RRIRRRPPRLPRPRPRPIHWPRP | -0.0227 |
| RRIRLRPPRLPRPRPRPMATPRP | -0.187 |
| RRIRLRPPRLPRPRPRPNNQPRP | -0.287 |
| RRIRHRPPRLPRPRPRPLARPRP | 0.113 |
| RRIRARPPRLPRPRPRPFVNPRP | 0.164 |
| RRIRERPPRLPRPRPRPQVVPRP | -0.42 |
| RRIRRRPPRLPRPRPRPCEHPRP | -0.212 |
| RRIRQRPPRLPRPRPRPQGIPRP | -0.602 |
| RRIRWRPPRLPRPRPRPKLTPRP | 0.475 |
| RRIRYRPPRLPRPRPRPQVNPRP | -0.0568 |
| RRIRCRPPRLPRPRPRPKTGPRP | -0.0569 |
| RRIRSRPPRLPRPRPRPFEFPRP | -0.42 |

| Sequence | shrunken log2 fold change |
| --- | --- |
| RRIRERPPRLPRPRPRPKKTPRP | -0.0747 |
| RRIRCRPPRLPRPRPRPEFSPRP | 0.072 |
| RRIRHRPPRLPRPRPRPPIPPRP | -0.11 |
| RRIRYRPPRLPRPRPRPATTPRP | -0.415 |
| RRIRFRPPRLPRPRPRPGFDPRP | 0.0857 |
| RRIRYRPPRLPRPRPRPRCCPRP | -0.233 |
| RRIRCRPPRLPRPRPRPDFTPRP | -0.0655 |
| RRIRRRPPRLPRPRPRPKLFPRP | 0.37 |
| RRIRRRPPRLPRPRPRPARNPRP | 3.18 |
| RRIRDRPPRLPRPRPRPYSAPRP | -0.0545 |
| RRIRIRPPRLPRPRPRPDPKPRP | -0.183 |
| RRIRARPPRLPRPRPRPLNQPRP | -0.0348 |
| RRIRTRPPRLPRPRPRPRLKPRP | 0.0991 |
| RRIRPRPPRLPRPRPRPPASPRP | 0.559 |
| RRIRLRPPRLPRPRPRPCGSPRP | -0.105 |
| RRIRVRPPRLPRPRPRPQATPRP | 0.271 |
| RRIRLRPPRLPRPRPRPNNEPRP | -0.276 |
| RRIRDRPPRLPRPRPRPNVKPRP | -0.631 |
| RRIRRRPPRLPRPRPRPPREPRP | 1.11 |
| RRIRRRPPRLPRPRPRPFWVPRP | 0.236 |
| RRIRVRPPRLPRPRPRPQPMPRP | 2.31 |
| RRIRGRPPRLPRPRPRPQCVPRP | -0.0809 |
